From article PMC11574045, “A cofactor-induced repressive type of transcription factor condensation can be induced by synthetic peptides to suppress tumorigenesis” (The EMBO Journal, 2024)

B1: ZNF550 (protein, UniProt Q7Z398 1-422, looked up)
Zinc finger protein 550: MAETKDAAQMLVTFKDVAVTFTREEWRQLDLAQRTLYREVMLETCGLLVSLGHRVPKPELVHLLEHGQELWIVKRGLSHATCAGDRAQVHTREPTTYPPVLSERAFLRGSLTLESSTSSDSRLGRARDEEGLLEMQKGKVTPETDLHKETHLGKVSLEGEGLGTDDGLHSRALQEWLSADVLHECDSQQPGKDALIHAGTNPYKCKQCGKGFNRKWYLVRHQRVHTGMKPYECNACGKAFSQSSTLIRHYLIHTGEKPYKCLECGKAFKRRSYLMQHHPIHTGEKPYECSQCRKAFTHRSTFIRHNRTHTGEKPFECKECEKAFSNRAHLIQHYIIHTGEKPYDCMACGKAFRCSSELIQHQRIHTGEKPYECTQCGKAFHRSTYLIQHSVIHTGEMPYKCIECGKAFKRRSHLLQHQRVHT
B2: ZNF671 (protein, UniProt Q8TAW3 1-534, looked up)
Zinc finger protein 671: MLSPVSRDASDALQGRKCLRPRSRRLPLPAAVRAHGPMAELTDSARGCVVFEDVFVYFSREEWELLDDAQRLLYHDVMLENFALLASLGIAFSRSRAVMKLERGEEPWVYDQVDMTSATEREAQRGLRPGCWHGVEDEEVSSEQSIFVAGVSEVRTLMAELESHPCDICGPILKDTLHLAKYHGGKARQKPYLCGACGKQFWFSTDFDQHQNQPNGGKLFPRKEGRDSVKSCRVHVPEKTLTCGKGRRDFSATSGLLQHQASLSSMKPHKSTKLVSGFLMGQRYHRCGECGKAFTRKDTLARHQRIHTGERPYECNECGKFFSQSYDLFKHQTVHTGERPYECSECGKFFRQISGLIEHRRVHTGERLYQCGKCGKFFSSKSNLIRHQEVHTGARPYVCSECGKEFSRKHTLVLHQRTHTGERPYECSECGKAFSQSSHLNVHWRIHSSDYECSRCGKAFSCISKLIQHQKVHSGEKPYECSKCGKAFTQRPNLIRHWKVHTGERPYVCSECGREFIRKQTLVLHQRVHAGEKL
B3: ZNF512 (protein, UniProt Q96ME7 1-567, looked up)
Zinc finger protein 512: MSSRLGAVPATSGPTTFKQQRSTRIVGAKNSRTQCSIKDNSFQYTIPHDDSLSGSSSASSCEPVSDFPASFRKSTYWMKMRRIKPAATSHVEGSGGVSAKGKRKPRQEEDEDYREFPQKKHKLYGRKQRPKTQPNPKSQARRIRKEPPVYAAGSLEEQWYLEIVDKGSVSCPTCQAVGRKTIEGLKKHMENCKQEMFTCHHCGKQLRSLAGMKYHVMANHNSLPILKAGDEIDEPSERERLRTVLKRLGKLRCMRESCSSSFTSIMGYLYHVRKCGKGAAELEKMTLKCHHCGKPYRSKAGLAYHLRSEHGPISFFPESGQPECLKEMNLESKSGGRVQRRSAKIAVYHLQELASAELAKEWPKRKVLQDLVPDDRKLKYTRPGLPTFSQEVLHKWKTDIKKYHRIQCPNQGCEAVYSSVSGLKAHLGSCTLGNFVAGKYKCLLCQKEFVSESGVKYHINSVHAEDWFVVNPTTTKSFEKLMKIKQRQQEEEKRRQQHRSRRSLRRRQQPGIELPETELSLRVGKDQRRNNEELVVSASCKEPEQEPVPAQFQKVKPPKTNHKRGRK
B4: ZNF770 (protein, UniProt Q6IQ21 1-691, looked up)
Zinc finger protein 770: MMAENNLKMLKIQQCVVANKLPRNRPYVCNICFKHFETPSKLARHYLIHTGQKPFECDVCHKTFRQLVHLERHQLTHSLPFKCSICQRHFKNLKTFVKHQQLHNETYQNNVKQVRRLLEAKQEKSMYGVYNTFTTEERWALHPCSKSDPMYSMKRRKNIHACTICGKMFPSQSKLDRHVLIHTGQRPFKCVLCTKSFRQSTHLKIHQLTHSEERPFQCCFCQKGFKIQSKLLKHKQIHTRNKAFRALLLKKRRTESRPLPNKLNANQGGFENGEIGESEENNPLDVHSIYIVPFQCPKCEKCFESEQILNEHSCFAARSGKIPSRFKRSYNYKTIVKKILAKLKRARSKKLDNFQSEKKVFKKSFLRNCDLISGEQSSEQTQRTFVGSLGKHGTYKTIGNRKKKTLTLPFSWQNMGKNLKGILTTENILSIDNSVNKKDLSICGSSGEEFFNNCEVLQCGFSVPRENIRTRHKICPCDKCEKVFPSISKLKRHYLIHTGQRPFGCNICGKSFRQSAHLKRHEQTHNEKSPYASLCQVEFGNFNNLSNHSGNNVNYNASQQCQAPGVQKYEVSESDQMSGVKAESQDFIPGSTGQPCLPNVLLESEQSNPFCSYSEHQEKNDVFLYRCSVCAKSFRSPSKLERHYLIHAGQKPFECSVCGKTFRQAPHWKRHQLTHFKERPQGKVVALDSVM
B5: ZNF563 (protein, UniProt Q8TA94 1-476, looked up)
Zinc finger protein 563: MDAVAFEDVAVNFTQEEWALLGPSQKNLYRYVMQETIRNLDCIRMIWEEQNTEDQYKNPRRNLRCHMVERFSESKDSSQCGETFSLIRDSIVNNSICPGEDPCQSAECEEVIMGHLSLNSHIRVDSGHKPHEYQEYGEKPHTHKQRGKAFSYHHSFQSRGRPHTGKKRYECKECGKTFSSRRNLRRHMVVQGGNRPYKCKLCGKAFFWPSLLRMHERTHTGEKPYECKQCSKAFPFYSSYRRHERMHTGEKPYECKQCSKALPDSSSYIRHERTHTGEKPYTCKQCGKAFSVSSSLRRHETTHSAEKPYECKQCGKTFHHLGSFQIHMKRHTGDRPHKCKICGKGFDRPSLVRYHERIHTGEKPYECKQCGKTLSHSSSFRRHMIMHTGGGPHKCKICGKAFVYPSVCQRHEKSHSGEKPYECKQCGKALSHSSSFRRHMVMHTGDGPNKCKVCGKAFVYPSVCQRHEKTHWRETI
B6: ZNF567 (protein, UniProt Q8N184 1-647, looked up)
Zinc finger protein 567: MAQGSVSFNDVTVDFTQEEWQHLDHAQKTLYMDVMLENYCHLISVGCHMTKPDVILKLERGEEPWTSFAGHTCLEENWKAEDFLVKFKEHQEKYSRSVVSINHKKLVKEKSKIYEKTFTLGKNPVNSKNLPPEYDTHGRILKNVSELIISNLNPARKRLSEYNGYGKSLLSTKQETTHPEVKSHNQSARAFSHNEVLMQYQKTETPAQSFGYNDCEKSFLQRGGLITHSRPYKGENPSVYNKKRRATNIEKKHTCNECGKSFCRKSVLILHQGIHSEEKPYQCHQCGNAFRRKSYLIDHQRTHTGEKPFVCNECGKSFRLKTALTDHQRTHTGEKSYECLQCRNAFRLKSHLIRHQRTHTGEKPYECNDCGKSFRQKTTLSLHQRIHTGEKPYICKECGKSFHQKANLTVHQRTHTGEKPYICNECGKSFSQKTTLALHEKTHNEEKPYICSECGKSFRQKTTLVAHQRTHTGEKSYECPHCGKAFRMKSYLIDHHRTHTGEKPYECNECGKSFSQKTNLNLHQRIHTGEKPYVCNECGKSFRQKATLTVHQKIHTGQKSYECPQCGKAFSRKSYLIHHQRTHTGEKPYKCSECGKCFRQKTNLIVHQRTHTGEKPYVCNECGKSFSYKRNLIVHQRTHKGENIEMQ
B7: ZNF555 (protein, UniProt Q8NEP9 1-628, looked up)
Zinc finger protein 555: MDSVVFEDVAVDFTLEEWALLDSAQRDLYRDVMLETFQNLASVDDETQFKASGSVSQQDIYGEKIPKESKIATFTRNVSWASVLGKIWDSLSIEDQTTNQGRNLSRNHGLERLCESNDQCGEALSQIPHLNLYKKIPPGVKQYEYNTYGKVFMHRRTSLKSPITVHTGHKPYQCQECGQAYSCRSHLRMHVRTHNGERPYVCKLCGKTFPRTSSLNRHVRIHTAEKTYECKQCGKAFIDFSSLTSHLRSHTGEKPYKCKECGKAFSYSSTFRRHTITHTGEKPYKCKECAEAFSYSSTFRRHMISHTGEKPHKCKECGEAFSYSSAFRRHMITHTGEKPYECKQCGKTFIYLQSFRRHERIHTGEKPYECKQCGKTFIYPQSFRRHERTHGGEKPYECNQCGKAFSHPSSFRGHMRVHTGEKPYECKQCGKTFNWPISLRKHMRTHTREKPYECKQCGKAFSLSACFREHVRMHPEDKSYECKLCGKAFYCHISLQKHMRRHTAEKLYKCKQCGKAFSWPELLQQHVRTHTVEKPYECKECGKVFKWPSSLPIHMRLHTGEKPYQCKHCGKAFNCSSSLRRHVRIHTTEKQYKCNVGHPPANEFMCSASEKSHQERDLIKVVNMVLPL
B8: ZNF576 (protein, UniProt Q9H609 1-170, looked up)
Zinc finger protein 576: MEDPNPEENMKQQDSPKERSPQSPGGNICHLGAPKCTRCLITFADSKFQERHMKREHPADFVAQKLQGVLFICFTCARSFPSSKALITHQRSHGPAAKPTLPVATTTAQPTFPCPDCGKTFGQAVSLRRHRQMHEVRAPPGTFACTECGQDFAQEAGLHQHYIRHARGEL
B9: ZNF581 (protein, UniProt Q9P0T4 1-197, looked up)
Zinc finger protein 581: MLVLPSPCPQPLAFSSVETMEGPPRRTCRSPEPGPSSSIGSPQASSPPRPNHYLLIDTQGVPYTVLVDEESQREPGASGAPGQKKCYSCPVCSRVFEYMSYLQRHSITHSEVKPFECDICGKAFKRASHLARHHSIHLAGGGRPHGCPLCPRRFRDAGELAQHSRVHSGERPFQCPHCPRRFMEQNTLQKHTRWKHP
B10: CDKN2C (protein, UniProt P42773 1-168, looked up)
Cyclin-dependent kinase 4 …: MAEPWGNELASAAARGDLEQLTSLLQNNVNVNAQNGFGRTALQVMKLGNPEIARRLLLRGANPDLKDRTGFAVIHDAARAGFLDTLQTLLEFQADVNIEDNEGNLPLHLAAKEGHLRVVEFLVKHTASNVGHRNHKGDTACDLARLYGRNEVVSLMQANGAGGATNLQ
B11: ZNF586 (protein, UniProt Q9NXT0 1-402, looked up)
Zinc finger protein 586: MAAAAALRAPAQSSVTFEDVAVNFSLEEWSLLNEAQRCLYRDVMLETLTLISSLGCWHGGEDEAAPSKQSTCIHIYKDQGGHSGERPYECGEYRKLFKNKSCLTEPRRDHKHRNVRTGERPYECSKYGKLFHQKPTLHIHERFHTGQKTYECSECGKSFHQSSSLLQRQTLHTRERPYECIECGKAFAEKSSLINHRKVHSGAKRYECNECGKSFAYTSSLIKHRRIHTGERPYECSECGRSFAENSSLIKHLRVHTGERPYECVECGKSFRRSSSLLQHQRVHTRERPYECSECGKSFSLRSNLIHHQRVHTGERHECGQCGKSFSRKSSLIIHLRVHTGERPYECSDCGKSFAENSSLIKHLRVHTGERPYECIDCGKSFRHSSSFRRHQRVHTGMRPYK
B12: CDX1 (protein, UniProt P47902 1-265, looked up)
Homeobox protein CDX-1: MYVGYVLDKDSPVYPGPARPASLGLGPQAYGPPAPPPAPPQYPDFSSYSHVEPAPAPPTAWGAPFPAPKDDWAAAYGPGPAAPAASPASLAFGPPPDFSPVPAPPGPGPGLLAQPLGGPGTPSSPGAQRPTPYEWMRRSVAAGGGGGSGKTRTKDKYRVVYTDHQRLELEKEFHYSRYITIRRKSELAANLGLTERQVKIWFQNRRAKERKVNKKKQQQQQPPQPPMAHDITATPAGPSLGGLCPSNTSLLATSSPMPVKEEFLP

Tested on: HEK293FT cells transfected with TF library
Experiment: Screening of TF condensates based on fluorescent puncta
Format: cell-based
Conditions: Figure 1B numerical data; TF library screen, one value per transcriptional factor
Method in brief: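 HEK293FT, PEI transfection of TF library, 60 h; ±glucose 12 h; 4% PFA fix, 0.05% Triton X-100 permeabilization, 5% BSA block; anti-Flag/anti-GAL4 overnight at 4 °C, Alexa 488 secondary 1 h; high-content imaging, 50 fields/well.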

Row | Molecule | Z score of condensed fraction
1 | B1 | -0.5599
2 | B2 | -0.9445
3 | B3 | -0.5967
4 | B4 | -0.4682
5 | B5 | -0.4635
6 | B6 | -0.7114
7 | B7 | -0.894
8 | B8 | -0.3795
9 | B9 | -0.1395
10 | B10 | -0.5488
11 | B11 | 0.1456
12 | B12 | 2.938
